Values of other authors, collected in paper PMC8364556.

Biological target: IL-10R complex (Homo sapiens) (UniProt Q13651)
Sequence (Q13651 22-235, chain 1 of 2): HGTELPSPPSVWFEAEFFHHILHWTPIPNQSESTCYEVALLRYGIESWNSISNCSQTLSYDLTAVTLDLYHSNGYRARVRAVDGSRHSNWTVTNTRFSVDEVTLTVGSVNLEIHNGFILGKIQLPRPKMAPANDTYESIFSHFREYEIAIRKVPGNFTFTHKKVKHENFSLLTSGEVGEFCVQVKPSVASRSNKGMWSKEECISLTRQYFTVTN
Sequence (Q08334 20-220, chain 2 of 2, further chain): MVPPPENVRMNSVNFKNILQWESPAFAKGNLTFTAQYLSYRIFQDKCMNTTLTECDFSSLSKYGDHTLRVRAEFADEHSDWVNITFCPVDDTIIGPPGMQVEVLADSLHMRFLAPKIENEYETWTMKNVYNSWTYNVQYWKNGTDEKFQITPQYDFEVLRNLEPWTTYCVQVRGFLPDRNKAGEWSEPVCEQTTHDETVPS

Chain of IL-10 (P22301 19-178): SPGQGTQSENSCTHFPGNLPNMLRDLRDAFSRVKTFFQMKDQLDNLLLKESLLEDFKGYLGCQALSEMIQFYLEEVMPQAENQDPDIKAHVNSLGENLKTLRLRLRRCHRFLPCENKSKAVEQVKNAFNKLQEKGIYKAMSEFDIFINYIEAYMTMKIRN

Kd: 0.56 nM
Substance: IL-10 (from UniProt P22301)
